According to patent publication US7723111:

Target: folate binding protein (FBP) (UniProt P15328)
Assay: cell-based or functional assay

UniProt P15328, sequence (P15328 25-234 limits assumed): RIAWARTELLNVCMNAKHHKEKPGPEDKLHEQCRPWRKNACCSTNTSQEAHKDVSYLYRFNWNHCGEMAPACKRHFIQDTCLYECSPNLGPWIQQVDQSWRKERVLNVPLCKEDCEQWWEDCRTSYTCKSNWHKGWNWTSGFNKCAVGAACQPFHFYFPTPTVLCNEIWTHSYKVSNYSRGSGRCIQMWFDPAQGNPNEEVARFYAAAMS

- IFN-γ secretion (pg/ml) of MOv-γ transduced mouse T cells in response to 24JK-FBP cells (parental 24JK: 0; non-transduced T cells: 0): 5200 pg/mL
- IFN-γ secretion (pg/ml) of MOv-γ transduced mouse T cells in response to IGROV (ovarian FBP +) cells (non-transduced T cells: 0): 37500 pg/mL
- share of MOv-γ transduced human T cell clones (patient 410) reactive against the ovarian cancer target: 67 % of clones
Substance: MOv-γ chimeric receptor
